Where “and” joins values, the source holds several entries; their conditions need not be identical. Equal entries are not always repeated. Where two headings read alike, the source gives them in different places. Where a SMILES comes first, the peptide text is derived from it. Bridges are numbered along the chain shown (N, C = ends). The star is where a group is joined. DOTA = O=C(O)CN1CCN(CC(=O)O)CCN(CC(=O)*)CCN(CC(=O)O)CC1
Experiments:
[1] = test system: αvβ6 expressing BxPC3 pancreatic cancer xenografts; details: for Tumor: αvβ6 (+)
Experimental: (§1) Female athymic nude mice, 4–6 weeks old (Charles River), were subcutaneously shoulder-injected with 10^7 cells suspended in 100 µL PBS. Mice were used for imaging and biodistribution studies when xenografted tumors grew to a diameter of ~1 cm.
(§2) Tumor-bearing Nu/Nu female mice (n = 3 for each probe) were anesthetized using 2% isoflurane in oxygen and injected with ~100 µCi (~0.15 nmol) of the tracers described above via the tail vein. Five-minute static PET scans were acquired on an Inveon PET-CT or Inveon D-PET scanner (Siemens Healthcare, Malvern PA). Images were reconstructed by a two-dimensional ordered expectation maximum subset algorithm and calibrated as described below. ROIs were drawn over the tumor on decay-corrected whole-body images using Inveon Research Workplace (IRW) software (Siemens) or ASIPro VM software (Siemens). ROIs were converted to counts g^−1 min^−1, and %ID g^−1 values were determined assuming a tissue density of 1 g ml^−1.
(§3) Scanner activity calibration was performed to map between PET image units and units of radioactivity concentration. A preweighed 50-mL centrifuge tube was filled with distilled water and ^64CuCl2 (∼9.3 MBq [∼250 μCi] as determined by the dose calibrator) was used to simulate the whole body of the mouse. This tube was weighed, centered in the scanner aperture, and imaged for a 30-min static image, single bed position. From the sample weight and assuming a density of 1 g ml^−1, the activity concentration in the bottle was calculated in units of μCi mL^−1. Eight planes were acquired in the coronal section. A rectangular region of interest (ROI) (counts/pixel/s) was drawn on the middle of eight coronal planes.

[2] = in vivo; details: female, athymic nude (Nu/Nu), mouse, iv, total radioactivity; for tissue uptake at 2 h: microPET 2 hr; for tissue uptake at 4 h: microPET 4 hr; for tissue uptake at 24 h: microPET 24 hr; for tissue to tissue ratio at 1 h: tumor / muscle, 100 uCi
Experimental: as §1, §2, §3

[3] = PET, 1 h p.i., average ± SD, n = 3
[4] = microPET 4 hr, individual mice, listed as R01-MG DOTA Cu-64
[5] = kidney, PET, 1 h p.i., average ± SD, n = 3
[6] = kidney, microPET 1 hr, individual mice
[7] = liver, microPET 1 hr, individual mice
[8] = muscle, PET, 1 h p.i., average ± SD, n = 3
[9] = muscle, microPET 1 hr, individual mice
[10] = tumor (BxPC3 xenograft), Tumor avb6(+), microPET 1 hr, individual mice, one line per mouse
[11] = tumor (BxPC3 xenograft), Tumor avb6(+), individual mice
[12] = tumor (BxPC3 xenograft, αvβ6 positive), Tumor, PET, 1 h p.i., αvβ6 (+), average ± SD, n = 3
[13] = microPET 2 hr, individual mice, listed as R01 DOTA Cu-64
[14] = microPET 4 hr, individual mice, listed as R01 DOTA Cu-64
[15] = liver, PET, 1 h p.i., average ± SD, n = 3
[16] = microPET 1 hr, individual mice, listed as Ro1-MR DOTA Cu-64
[17] = microPET 4 hr, individual mice, listed as R01-MR DOTA Cu-64
[18] = microPET 24 hr, individual mice, listed as R01-MR DOTA Cu-64
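Also: shoulder subcutaneous xenografts near 1 cm, tracer given via tail vein, 5-min static PET, ROI activity on decay-corrected images converted to %ID/g with tissue density taken as 1 g/mL.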

SMILES | Tumor [1, 3] | Kidney [1, 3] | tissue uptake at 1 h [2, 5] | tissue uptake at 1 h [2, 6] | tissue uptake at 2 h ([2]; kidney, individual mice) | tissue uptake at 4 h ([2]; kidney, individual mice) | tissue uptake at 24 h ([2]; kidney, individual mice) | tissue uptake at 1 h [2, 7] | tissue uptake at 2 h ([2]; liver, individual mice) | tissue uptake at 4 h ([2]; liver, individual mice) | tissue uptake at 24 h ([2]; liver, individual mice) | tissue uptake at 1 h [2, 8] | tissue uptake at 1 h [2, 9] | tissue uptake at 2 h ([2]; muscle, individual mice) | tissue uptake at 4 h ([2]; muscle, individual mice) | tissue uptake at 24 h ([2]; muscle, individual mice) | tissue uptake at 1 h [2, 10] | tissue uptake at 2 h [2, 11] | tissue uptake at 4 h [2, 11] | tissue uptake at 24 h [2, 11] | further results
CC[C@H](C)[C@@H]1NC(=O)[C@@H](NC(=O)CNC(=O)CN2CCN(CC(=O)O)CCN(CC(=O)O)CCN(CC(=O)O)CC2)CSSC[C@@H]2NC(=O)[C@H](C)NC(=O)CNC(=O)[C@@H]3CCCN3C(=O)[C@@H]3CSSC[C@@H](C(=O)NCC(N)=O)NC(=O)[C@H](Cc4ccc(O)cc4)NC(=O)CNC(=O)[C@H](CC(N)=O)NC(=O)CNC(=O)[C@H](CCCNC(=N)N)NC(=O)[C@H](CSSC[C@H](NC(=O)[C@H](CCCNC(=N)N)NC(=O)[C@H](Cc4ccccc4)NC(=O)[C@H](CC(C)C)NC(=O)[C@H](CC(C)C)NC(=O)[C@H]([C@@H](C)O)NC(=O)CNC(=O)[C@H](CC(C)C)NC(=O)[C@H](CC(=O)O)NC(=O)[C@H]([C@@H](C)O)NC(=O)[C@H](CCCNC(=N)N)NC(=O)CNC(=O)[C@H](CC(N)=O)NC(=O)[C@H](CC(C)C)NC1=O)C(=O)N[C@@H](CCCNC(=N)N)C(=O)N[C@@H](CCCNC(=N)N)C(=O)N[C@@H](CC(=O)O)C(=O)N[C@@H](CO)C(=O)N[C@@H](CC(=O)O)C(=O)N3)NC(=O)[C@H]([C@@H](C)CC)NC2=O [[^64Cu]DOTA-R01-MG, metal not drawn] | ~ 3 %ID g^−1 | ~ 30 %ID g^−1 | 28.4 ± 2.61 %ID/g | 25.3 %ID/g | 26.9 %ID/g | 25.6 %ID/g | 10.8 %ID/g | 1.77 %ID/g | 2.38 %ID/g | 2.4 %ID/g | 3.39 %ID/g | 0.472 ± 0.003 %ID/g | 0.471 %ID/g | 0.398 %ID/g | 0.385 %ID/g | 0.394 %ID/g | 2.93 %ID/g | 2.27 %ID/g | 2.22 %ID/g | 2.52 %ID/g | Liver [1, 3]: 2.14 ± 0.38 % injected dose gram^−1; Tumor avb6(+) ([1]; microPET 1 hr, individual mice, one line per mouse, listed as Ro1-MG DOTA Cu-64): 2.952 %ID/g; Muscle ([1]; microPET 1 hr, individual mice, listed as Ro1-MG DOTA Cu-64): 0.4707 %ID/g; Muscle ([1]; microPET 2 hr, individual mice, listed as R01-MG DOTA Cu-64): 0.4023 %ID/g and 0.398 %ID/g; Liver [1, 4]: 2.382 %ID/g; Muscle [1, 4]: 0.3296 %ID/g; Muscle ([1]; microPET 24 hr, individual mice, listed as R01-MG DOTA Cu-64): 0.3985 %ID/g and 0.3942 %ID/g; tissue uptake at 1 h [2, 12]: 2.74 ± 0.35 %ID/g; tissue to tissue ratio at 1 h [2]: 5.8 ± 0.72
CC[C@H](C)[C@@H]1NC(=O)[C@@H](NC(=O)CNC(=O)CN2CCN(CC(=O)O)CCN(CC(=O)O)CCN(CC(=O)O)CC2)CSSC[C@@H]2NC(=O)[C@H](C)NC(=O)CNC(=O)[C@@H]3CCCN3C(=O)[C@@H]3CSSC[C@@H](C(=O)NCC(N)=O)NC(=O)[C@H](Cc4ccc(O)cc4)NC(=O)CNC(=O)[C@H](CC(N)=O)NC(=O)CNC(=O)[C@H](CCCNC(=N)N)NC(=O)[C@H](CSSC[C@H](NC(=O)[C@H](CCCNC(=N)N)NC(=O)[C@H](Cc4ccccc4)NC(=O)[C@H](CC(C)C)NC(=O)[C@H](CC(C)C)NC(=O)[C@H]([C@@H](C)O)NC(=O)CNC(=O)[C@H](CC(C)C)NC(=O)[C@H](CC(=O)O)NC(=O)[C@H]([C@@H](C)O)NC(=O)[C@H](CCCNC(=N)N)NC(=O)[C@H](CCSC)NC(=O)[C@H](CC(N)=O)NC(=O)[C@H](CC(C)C)NC1=O)C(=O)N[C@@H](CCCNC(=N)N)C(=O)N[C@@H](CCCNC(=N)N)C(=O)N[C@@H](CC(=O)O)C(=O)N[C@@H](CO)C(=O)N[C@@H](CC(=O)O)C(=O)N3)NC(=O)[C@H]([C@@H](C)CC)NC2=O [[^64Cu]DOTA-R01, metal not drawn] | ~ 3 %ID g^−1 | ~ 30 %ID g^−1 | 30.3 ± 2.33 %ID/g | 32.9 %ID/g | 34.3 %ID/g | 29.8 %ID/g | 11.5 %ID/g | 2.34 %ID/g | 1.82 %ID/g | 1.79 %ID/g | 2.93 %ID/g | 0.433 ± 0.008 %ID/g | 0.427 %ID/g | 0.404 %ID/g | 0.399 %ID/g | 0.37 %ID/g | 2.99 %ID/g | 2.87 %ID/g | 2.39 %ID/g | 1.85 %ID/g | Muscle ([1]; microPET 1 hr, individual mice, listed as Ro1 DOTA Cu-64): 0.4306 %ID/g; Muscle [1, 13]: 0.407 %ID/g; Tumor avb6(+) [1, 13]: 2.883 %ID/g; Kidney [1, 14]: 29.77 %ID/g; Muscle [1, 14]: 0.4024 %ID/g; Muscle ([1]; microPET 24 hr, individual mice, listed as R01 DOTA Cu-64): 0.3725 %ID/g; tissue uptake at 1 h [2, 15]: 2.26 ± 0.11 %ID/g; tissue uptake at 1 h [2, 12]: 3.07 ± 0.17 %ID/g; tissue to tissue ratio at 1 h [2]: 7.09 ± 0.27
CC[C@H](C)[C@@H]1NC(=O)[C@@H](NC(=O)CNC(=O)CN2CCN(CC(=O)O)CCN(CC(=O)O)CCN(CC(=O)O)CC2)CSSC[C@@H]2NC(=O)[C@H](C)NC(=O)CNC(=O)[C@@H]3CCCN3C(=O)[C@@H]3CSSC[C@@H](C(=O)NCC(N)=O)NC(=O)[C@H](Cc4ccc(O)cc4)NC(=O)CNC(=O)[C@H](CC(N)=O)NC(=O)CNC(=O)[C@H](CCCNC(=N)N)NC(=O)[C@H](CSSC[C@H](NC(=O)[C@H](CCCNC(=N)N)NC(=O)[C@H](Cc4ccccc4)NC(=O)[C@H](CC(C)C)NC(=O)[C@H](CC(C)C)NC(=O)[C@H]([C@@H](C)O)NC(=O)CNC(=O)[C@H](CC(C)C)NC(=O)[C@H](CC(=O)O)NC(=O)[C@H]([C@@H](C)O)NC(=O)[C@H](CCCNC(=N)N)NC(=O)[C@H](CCCNC(=N)N)NC(=O)[C@H](CC(N)=O)NC(=O)[C@H](CC(C)C)NC1=O)C(=O)N[C@@H](CCCNC(=N)N)C(=O)N[C@@H](CCCNC(=N)N)C(=O)N[C@@H](CC(=O)O)C(=O)N[C@@H](CO)C(=O)N[C@@H](CC(=O)O)C(=O)N3)NC(=O)[C@H]([C@@H](C)CC)NC2=O [[^64Cu]DOTA-R01-MR, metal not drawn] ({DOTA}-GCILNRRTDLGTLLFRCRRDSDCPGACICRGNGYCG-NH2; disulfide 2-27, 17-29, 23-35) | ~ 3 %ID g^−1 | ~ 90 %ID g^−1 | 90 ± 3.64 %ID/g | 94 %ID/g | 90.5 %ID/g | 82.3 %ID/g | 37.8 %ID/g | 4.66 %ID/g | 3.9 %ID/g | 3.44 %ID/g | 6.99 %ID/g | 0.536 ± 0.004 %ID/g | 0.533 %ID/g | 0.516 %ID/g | 0.467 %ID/g | 0.513 %ID/g | 3.27 %ID/g | 3.46 %ID/g | 2.55 %ID/g | 3.2 %ID/g | kidney uptake relative to the other two candidates ([1]; 1 h p.i.): ~ 3 fold; Tumor avb6(+) ([1]; microPET 1 hr, individual mice, one line per mouse, listed as Ro1-MR DOTA Cu-64): 3.249 %ID/g; Liver [1, 16]: 4.713 %ID/g; Muscle [1, 16]: 0.5407 %ID/g and 0.5349 %ID/g; Muscle ([1]; microPET 2 hr, individual mice, listed as R01-MR DOTA Cu-64): 0.5174 %ID/g; Kidney [1, 17]: 82.8 %ID/g; Liver [1, 17]: 4.22 %ID/g; Muscle [1, 17]: 0.4687 %ID/g; Kidney [1, 18]: 38.15 %ID/g; Muscle [1, 18]: 0.5142 %ID/g; Tumor avb6(+) [1, 18]: 3.535 %ID/g; tissue uptake at 1 h [2, 15]: 4.63 ± 0.09 %ID/g; tissue uptake at 1 h [2, 12]: 3.45 ± 0.34 %ID/g; tissue to tissue ratio at 1 h [2]: 6.43 ± 0.58

Source: PMC6791878, “Evaluation of integrin αvβ6 cystine knot PET tracers to detect cancer and idiopathic pulmonary fibrosis” (Nature Communications, 2019)
